Test results from the supplement of paper PMC9170038.

Key:
Details in all cases: FMN input: 0 or 200 uM; Eterna round: R93 (includes R88 designs)
MS2 coat protein [1] = assay: apparent KD of MS2 coat protein, switch OFF state (with FMN for OFF switches, without FMN for ON switches); designed switch direction (-1 OFF switch, 1 ON switch): 1; higher = weaker reporter binding
In short: (§1)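 For every design, apparent KD is the median of normalised binding-curve fits from its clusters. The RNA switches were transcribed on-chip from Illumina sequencing clusters and titrated with SNAP-549-labelled MS2 coat protein (twofold steps, 0.7 or 1.5 nM to 3 µM; 0.8–1.5 h to 10–20 min per step). Titrations used 100 mM Tris-HCl pH 7.5, 80 mM KCl, 4 mM MgCl2, without or with constant ligand.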

MS2 coat protein [2] = assay: apparent KD of MS2 coat protein, switch ON state; designed switch direction (-1 OFF switch, 1 ON switch): 1; higher = weaker reporter binding
In short: as §1

MS2 coat protein [3] = assay: apparent KD of MS2 coat protein, switch OFF state (with FMN for OFF switches, without FMN for ON switches); designed switch direction (-1 OFF switch, 1 ON switch): -1; higher = weaker reporter binding
In short: as §1

MS2 coat protein [4] = assay: apparent KD of MS2 coat protein, switch ON state; designed switch direction (-1 OFF switch, 1 ON switch): -1; higher = weaker reporter binding
In short: as §1

Sequence	apparent KD of MS2 coat protein (MS2 coat protein [1]) [nM]	apparent KD of MS2 coat protein (MS2 coat protein [2]) [nM]	apparent KD of MS2 coat protein (MS2 coat protein [3]) [nM]	apparent KD of MS2 coat protein (MS2 coat protein [4]) [nM]
GAUAUACAUGAGGAUCACCCAUGUUAGGUGGGUCAAGGAUAUUGAUAUAAAUAAAAAACUCGAGAAGGUGAAUAAA [JR_SS001_Sub020]	153	298		
UGGAGACAUGAGGAUCACCCAUGUGAGAAGAGGCGAGGAUAUCGAAAGAAAGAAGAGAAACGAGAAGGCGCGAGUG [salish99-SS1-042]	46.9	40.3		
ACUAUACAUGAGGAUCACCCAUGUCAGGUGGGACUAGGAUAUCAUAAGCCAGAGUAAGUAUGAGAAGGAGUAGAAA [JR_SS001_Sub305]	74.7	73.2		
AAAGUGCCGACGAAGGAUAUAGCGGGUGAGACAUGAGGAUCACCCAUGUAUGCAGAACUCAUCCUCUAGAAGGUUGAGACGGCUA [Bionlateat]	138	488		
CAGAGACAUGAGGAUCACCCAUGUAGGAUUAUGGGAGGAUAUACAAAGACGAGAGUCAGAGUAGAAGGCCUAGGAA [salish99-ss1-141]	57.6	21.1		
UUACAGCACAGGUAGGAUAUGUAGGGUGGUACAUGAGGAUCACCCAUGUAUCCACCCUUCGAAAGGCAGAAGGGCCUGUCGCUGC [Arsora]	16.8	24.6		
CGGAGACAUGAGGAUCACCCAUGUGAGAAGAGGCGAGGAUAUGGAAAUAAAGAAGAGAAAUGAGAAGGCGCGAGCC [salish99-SS1-082]	36.3	40.6		
AAGAAACAUGAGGAUCACCCAUGUAAGAUAAACACAGGAUAUGCGAAAGAAAUAAAGAAAGCAGAAGGGUGAAGAA [Mat - Same State 1 - Tesla mod - D147]	26.8	14.3		
GGGAAGAAGAGAGAGGAUAUCCAAAGGAAAACAUGAGGAUCACCCAUGUAAAAGGUAGGAAAUUGGGAGAAGGCUCAAAAGAGGG [salish99-ss2-032]	39.4	29		
UGAAGACAUGAGGAUCACCCAUGUGGGAUUAUGGGAGGAUAUACAAAGACGAGAGUCAGAGUAGAAGGCCUAGGAG [salish99-ss1-118(!)]	67.9	39.5		
GAAAAACAUGAGGAUCACCCAUGUAAAAAUAUGGGAGGAUAUUCAAAGACGAAAGGGAAAGAAGAAGGCCUAAAAG [Garnet 4]	1300	82.7		
UAAAAACAUGAGGAUCACCCAUGUGAGAACAUGGGAGGAUAUACAAAGACGAAAGUCAAAGUAGAAGGCCUAAAAU [Mat - Same State 1 - Mod - D170]	15.9	75.1		
AUUCCAAAUAGUCAGGAUAUCAGAAGUAAGACAUGAGGAUCACCCAUGUACUUAGUAAAAGUAACUGAGAAGGGACAGGGUGUAA [JR_SS002_Sub405]	16.1	17.4		
AGAAGACAUGAGGAUCACCCAUGUGGGAAUAUGGGAGGAUAUACAAAGACGAGAGUCAGAGUAGAAGGCCUAGGAU [salish99-SS1-092]	118	37.3		
AAAAAACAUGAGGAUCACCCAUGUAAAAAUAUGGGAGGAUAUGGAAACACGAAAGUGAAACCAGAAGGCUCAAAAG [77%, Mat - Mod of Eli, 17]	78.4	21.2		
UAUAGACAUGAGGAUCACCCAUGUAGAAUUAUGGGAGGAUAUACAAAGACGAGAGUCAGAGUAGAAGGCCUAGGAA [salish99-ss1-152]	55.7	24		
GUAUAUAUAAGACAGGAUAUCCUAAAGUAAACAUGAGGAUCACCCAUGUAAAGAAAGAAACUCAUGGAGAAGGGUCAAUAUAUAC [Mat - Same State 2 - Tesla mod - D82]	27.1	11.5		

Sequence	apparent KD of MS2 coat protein (MS2 coat protein [1]) [nM]	apparent KD of MS2 coat protein (MS2 coat protein [2]) [nM]	apparent KD of MS2 coat protein (MS2 coat protein [3]) [nM]	apparent KD of MS2 coat protein (MS2 coat protein [4]) [nM]
AGAAAUAAAGCUGAGGAUAUCCAAAACCAAACAUGAGGAUCACCCAUGUAAAAGAAAAUAAAAUGGGAGAAGGCAGCAAAUAAGA [Designing denovo 8]	21.9	12.5		
AGGAAACAUGAGGAUCACCCAUGUAAAAAUAUGGGAGGAUAUACAAACAGGAAAGAGAGAGUAGAAGGCCUAAAAG [Garnet 20]	41.8	72.9		
AACAAUCUAUCUGAGGAUAUCAUGUCAAAGACAUGAGGAUCACCCAUGUCGCAGGAAACUGCUCAUGAGAAGGCAGAUAGAUUGA [SS2: 1128]	17.2	11.2		
AAAUGACAUGAGGAUCACCCAUGUCCACCAAACGGAGGAUAUUGGGCGGAAAAACGUUGUUAAGAAGGCCGAAAAA [SS1-1.0]	73.7	143		
AUAAAACAUGAGGAUCACCCAUGUGAAAAUAUGGGAGGAUAUACGUAGACGAAAGUCGACGUAGAAGGCCUAAAAG [Same State 1.4n.2 (Mat - Mod of Eli - )]	81.8	28.8		
AACAAUCUAUCUGAGGAUAUAUGUCGAAAGACAUGAGGAUCACCCAUGUGAAAACAUGAAAAGACAUAGAAGGCAGAUAGAUUGA [SS2: 1131]	47.3	27.4		
AUAAAAGAAGCGAAGGAUAUCCAAAACUCAACAUGAGGAUCACCCAUGUAAAGAAAGAAAAAAUGGGAGAAGGUCGCAAAGAAUA [73%, More Fisker Same State 2, D3, 10]	26.7	11.8		
AAAACACAUGAGGAUCACCCAUGUGCAAAAUUCGCAGGAUAUUCCUCAAUUAAAUGAGAGGAAGAAGGGUGAUAAA [Nob's Hobby 33 - Jieux - Same State 1]	53.4	18.9		
AAUAUAUUAAGUGAGGAUAUCAUAGGAAAAACAUGAGGAUCACCCAUGUGGGAAACCUGGUCGGGUGAGAAGGUACUUAAUAUAU [Samwise Clockwise 31 - Jieux - Same State 2]	175	69.2		
AAGAAACAUGAGGAUCACCCAUGUAAAUUUAAGAGAGGAUAUCGUACAUGGAAGAUUUAACGAGAAGGCUCUAGAA [Pariah 2 (MS2 Riboswitches - Same State 1)]	36.9			
AACAGUACAGGAUAUACAUGAGGAUCACCCAUGUGAAAAUUAAGUGGCGAACCACAGUGUAGAAGGGUACUGGA [Mat - Exclusion 3 - Eli mod - D51]			33.5	81.8
AAAAAGGGAGGAUAUGCAUACACAAAAAAAAAAAAAAAAAAACAUGAGGAUCACCCAUGUAGAAGGCCCAAAAA [Dora Explored 3 - Jieux - Exclusion 2]			28.9	37.4
AAGAAGGUAGGAUAUACAUGAGGAUCACCCAUGUAAAAGAAAGAGGGAAAAGAGAAAAGUAGAAGGACCAAGAA [Ankhmakis]			50.1	34.3
AAAAAGCGAGGAUAUGCAAGAAAAAAAAAAAAAAAAAAGGGACAUGAGGAUCACCCAUGUAGAAGGCGCAAAAA [Diamond 65]			38	54.9
AAGAAGCGAGGAUAUACAUGAGGAUCACCCAUGUAAAAGAAAGAGGGAAAAGAGAAAAGUAGAAGGCGCAAGAA [Philip III Arrhidaeus]			123	84.2
CCCAUGUCAGGAUAUCAGUAGUAAAAAAAAAAAAUUACUACUGAGAAGGGACAUGAGGAUCACCCAUGUCCCUU [EX4 314: Super Stable 14]			14.2	16.9
